According to the domain aggregation screens of Martell et al. (2025):

experiment: soluble fraction after stress (log2 fold change); higher = more stays soluble; pooled small domains, quantitative proteomics; conditions: stress: pH 4
In short: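 Custom libraries of small protein domains were pooled and exposed to pH 4. High-throughput quantitative proteomics then measured the log2 fold change in the amount of each domain still soluble, with higher values meaning more stayed soluble. This soluble-fraction fold change stands for aggregation propensity.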

Point of comparison: “HMQEPVYRPVFPGMTDADRQSAMEALKEGGFSPRLNRQTGQLEVDASGYHEAKIYLASQGIPAE”, “soluble fraction (log2)” value 0.22. Against it:
- HMQDTRSHARKMLAAIEALLEGRSGSDIQAYTIHNRSITKMTVPELVKWRSYYQQQVRSEDAAASLA — within 0.2 log units, 0.206
- HMQDTYLYPVQHNGKVRLQVELPAKGLPEDLVRLALAHPKVVEWLNGRIPTKTIAVPGRIINMVLPNQ — within 0.2 log units, 0.18
- HMQDVWEPFLAKGYVFADGMLTKLIHKRGDVYKTQEIGSDKIIYVIKDGDTFAHGKTVKAAMLDLAFKKS — lower, -0.392
- HMQDYISAEEAKSAALSASQVDSAGAAFSAAELGEKNGIPYYEVAFTADGLEYRYAIDAQTGTVIESSSSG — lower, -0.164
- HMQEDKVRKLTEMGFAEDQAREALRKHDWDETMALNSL — lower, -0.244
- HMQEDSNISFVKIHVDADSGMAHKKLSKLSLPTGFLIVVIIRGEENIIPNGETEVLPGDLLVAAAREFEN — lower, -0.811
- HMQEEELYPRLEEVINQHRGKGEDLIMVLHKAQNLFGYLPRRAQEMVAEGLNVSLNEVYGVITFYNFFST — lower, -0.342
- HMQEERDISFIKIHLEPGHPWRGRALRELMPLKDLLIVMVVRGEDTIVPNGDTRLEEGDLLVLAAYPFEE — lower, -2.57
- HMQEHAHLWRLMEDNRSFKADYIAFENGIVLLQNLSSGKISQYPITDFSIEDQLLILKRHELTAHINAN — lower, -0.0419
- HMQEIKPEPISDGRVWKEGMWATTPLGIEGQLLSDPDEKGMVQLGYGNMRININIQDLDPSR — lower, -0.207
- HMQEISQEEALATVLKDLSLTEADLKDLQITREEDKYKILFSKGQTAYDVLVSAKDGQLLQSKQETI — lower, -0.359
- HMQEKQIIDGREFYIHQVERGITLYSIAKQYNVKVADIQAENPFLEAGLQPGQTLKIPLDKVETVQEIK — lower, -0.17
- HMQEPIAVPDFINKSAVDVLVNPVFTQNFKLVSEDVYDDKVPEGYIVGQSVKSDTLVQPGTEIVIYV — within 0.2 log units, 0.0962
- HMQEPNYQPLMQNIKSQDLEEVTRLLSLNDVKFKIDHRTGLLLVESSRVYEAKMKLAATGITD — lower, -1.15
- HMQEPVHFTRRERQVLSLILSGQATAEIAKTLGIANATVTTYKKSLYSKSGTNSLSRLLIWAMVRR — lower, -0.332
- HMQERNYIVRRGDTLWDLAKTYYGSGTKYTVIYDANRDNIEAEAKRRGKQSSNGGYWIYPGTELTI — lower, -0.0819
- HMQERTVVKGVVVQVSRDEAYVDIGYKQEIPVSKRDLAVPAPDDARDVVKVGDEIDVYIKSLGGDNGG — lower, -0.0346
- HMQESTPGEGYKWREDVLLRVMSQNGIDESLRDEFVRHAVNYDIDDNMYLKKAEIESAAEAWVLENS — lower, -1.92
- HMQESVTVSAQALRRLLEKGDGDAALLYLALLRHHGTIQPRALAGELRWERPRIEAAEEALRQMGLIA — within 0.2 log units, 0.121
- HMQETMTNDEVISLTKAGLSSSIIIGKIRSSATNFDLSTDSLIKLKQAGVSDETVAAMLEAKS — within 0.2 log units, 0.181
- HMQGAARGMLFAQAQRWMTKFRIDPQQADRITQAALDPAQTDAILREVRRGYGPSAERALRGIIRRARRA — within 0.2 log units, 0.259
- HMQGEAMQETVKKLDAFLQDNSVSMSALARALGVSPSLISQFRSGSYKGDSQAIAAKINSYIDNHNKKSK — within 0.2 log units, 0.0656
- HMQGEKDDLWREVLDNPDAWWDNRERKNAPGGNPRYPDFKHKDSQTPLWIESRDTPQWAIDALL — lower, -0.406
- HMQGNGKVATELLKDIIASDNLYINAMRMLVMHYNSKGTNQVEMVKLLHNILDLVPDDEYANEILKSAKKA — lower, -0.637
- HMQGPDPYAVLGIDRHADERAIKRAYRKLISEHHPDRLGDLPEDMRKRAESRASEINAAYDRIKEARGF — within 0.2 log units, 0.13
- HMQGQVLQETARKARSQLDSEIPGFNDALYQNLIKSSENYGYKAEEVAQWVDPRAIKVLNDAYQFQQLKAG — lower, -0.25
- HMQGTTTELLIQKSALYEELNDPEKALNAMFDAFEMDSLNVNVLHRIVSLLLDKEENEKAILYNQLIIDH — lower, -0.507
- HMQHQSGLKSGEFEAISQQLQALLKENPLSLQEIKDKMQVTENHLIKVVSYLVSEEIIRQENGYLK — lower, -1.67
- HMQIAGLDDIDNRIIDLLLKNGRASYSEIGAAVGLSRTAAKNRIRALEASGIIRGYQAILDPQA — within 0.2 log units, 0.0596
- HMQIDDSVELSAIVEKLLAANPEQVEQLKNGKTKVLGYFVGLAMKETQGRANPQKVNELIQTHL — lower, -0.308
- HMQIDRLFDIVYTLLRKKSATAAELAERFGVSKRTILRDIETLSVAGIPILTSPGKGGGVSISSSF — lower, -0.423
- HMQIIETTVGRVLFNEKVPEAAGYINEVLTKKSLRDIIHGILKKTSVPETAAFLDEIKSLGYNFAF — lower, -0.264
- HMQIIEVPYSEFLKKLESGQISEVSRDSYQIVFTDRSQPPIIYKTGLMEDPGLVDKMQEAGVTFTSP — lower, -0.228
- HMQIKNVDYGTFLDMLDEKNVKEVEIEDEQIVFTDNADPTGYYTTGRMEDPDLVDRLHNSGATFSAI — lower, -0.841
- HMQILLASHAELAKGILSAVELIAGTQQNLKAYSAYTEAVDVHFKDQMLQDLNKMDPEDEVIL — within 0.2 log units, 0.0244
- HMQINLSEWVLAAREYAGPEMTQEKLAEHLGRTKANVSAMENGRSKPSFEQMMEIHRVTGYPLPYQ — lower, -0.0156
- HMQISDAGALLDAVRRVLAENPAQVEQFRAGKEKVMGFLVGQVMRATGGKANPQMLNDVLREELS — within 0.2 log units, 0.198
- HMQISDEGELSGIVRKIIDANPQSVADYKAGKKKAIGFLVGQIMIETKGRANPASVNELLIKKLE — within 0.2 log units, 0.105
- HMQISDNTILEDAVSRIIDENPKSVSDYFQGKEAVVGFFIGQIMRETKGTANPKIAREIVISHLEAI — lower, -0.819
- HMQISGIHLYERRITKDDEWAERKLSEISLAGSLVILILRNEHVVIPNGETVLKENDLLYISD — lower, -1.38
- HMQISGSEELEKIVQTVLEKNTDVVEEYKSGKTKVFAFLMGQVMKESRGKANPRLAKDILEKFLA — within 0.2 log units, 0.177
- HMQITAPVQKIDGVEYYMHKVEQGQTLYSISKLYNVGVKEIQKANQLGTEGIQLGQVLKVRKGG — lower, 0.00111
- HMQIYLTPEQFKIIDFMEQMGKITVKDVMDILNIPKRTAQLHLQKLKTLKMIAQTGKGPSSAYLL — lower, -0.797
- HMQKDAYVPDIISKLKSSRMIVVEGTIYPLLTRLKNTGLLSYRWEESLQGPPRKYYSITEQG — lower, -0.0816
- HMQKDYKTRLQEYYAKVGKKVNYMDSSTGPDHDKKFQTQVFLDKEIIGVGEGKSKKSSQQEAAKQALEKI — higher, ≥ 0.43
- HMQKFINQEHEKAYNLMLEKDYQQALKIFDDLIYLFPNEANLLSDRGVIFIHLNKKEAALQDFDQAVF — lower, -1.49
- HMQKIEKVDYGTFLKMIENGEIDQVNLTEKKISFTTDKDAETVYETGRVEDPNIVDRLYQADVEFTQEI — lower, -0.884
- HMQKIENYDQFVQAFKRLSGLDLKLYKENQMKRRINNFINNHGFKENYDQFFQAITGNKELYNAFFKHLTI — lower, -0.395
- HMQKKYLAVKEYLLEQINSGAYQPDEPIPPEREMAAMLGVNRMTLRRAVEELMYEGLLIRKKGSGTFLTK — lower, -0.714
- HMQKLSPKQRRGNIIELIKENPTITAKNISTIFNLNQRTIERDLAKLTEEGYIKYEGSSKDGKWVFL — higher, ≥ 0.43
- HMQKNKSVLFKDIVIAFNQNPKKLFNYKQLAADLDIHSEAERMLISQLLNDLKDQNFLEEVERGKYKLKL — lower, -0.479
- HMQKPIKPVKMHTVGPKENLSSIGRMYEVNGRVLANYNNIDYDKGLTIGQVLKIPPKGTTLEQVT — lower, 0.0149
- HMQKTIDWSQVDKEQYLSAMERSPVNDLEIKAILAKALTSDINNRELFMKGLDHSYYFEGYQLFKSE — lower, -0.939
- HMQKTQVVEVAGKSYQLTKMDARTGSYVAFKVAGVLAPSGGKTAEMAAALMGMPRKDFDELQSLLLRTV — higher, ≥ 0.43
- HMQKYSTIIGVIELRQSGIGYRTTKKRYNIGNSTVTLIMNRFHELGLSLEELKAMPPKKVEEAFYPPE — lower, -0.0306
- HMQLASILDDIPGIGKKRKENLLTHFGSFSKIQSADIDALAEVPGISRDLAETIHTYLKTHQ — lower, -0.0521
- HMQLDLSDPSKNKLDSIVSLPIKSLKAVEANGEILFMSENGRFVLRGQLYDIWYKDTLDTSAQIQDAATRI — within 0.2 log units, 0.179
- HMQLDLTSTLDHMYKQMRNDHPRALLMAVEKEMVLRALKETDGNQLRASDILGISRSTLRKRIEEFDINS — lower, -0.257
- HMQLEPLITSVIPVNFAKAGEVATTIKGKEVGLVSDRGSITAESRTNVLIVKDIKKNVDDISAMVKRLD — lower, -0.0177
- HMQLGEEAGDELVAIVRSVINDNDKALADYLAGKSSALKFLLGQVMRQTKGRADHALVQSLLEAELEAL — lower, -0.586
- HMQLHDTMKRVYEALDISEQKLAESLGLKLSTIINWQKNGISKIGINKLNQTFGLDMQWILTGQGEPFI — lower, -0.0735
- HMQLLDIGSAVRIIREPYFGRLGTVVELPPELMEIESGTHARVLKAKLDDGTVAVVPRANVEIIVE — lower, -1.34
- HMQLNNTDELEKIILKILENNPKQVDQFLAGKQKLLGFFVGQAMRATSGKANPKTVNDLLEKFLSK — lower, -0.335
- HMQLPDLDEIRQMRKRLDLSQRELAALAGVSQSLIAKIEKGSIDPSYDNVRKIFNAFENILKKRALE — lower, -0.495
- HMQLPIGDVKLSVEHLSSGTALQDISFEVHRGEIFGFLGLVGAGRSETAETIFGLREKTDGKISIDGTVL — within 0.2 log units, 0.117
- HMQLPTNAAAILRYLSSGAVKGVGSATAVRIVEKFGEETLNILEQDPLRLAEIRGISRDKAKKIGEDFASQ — within 0.2 log units, 0.0714
- HMQLSMLPYGFARRHGVLLVEQDEQPTLIHRAGITATVIAEVQRVAGQIDAWRLVDDARFDQQLAEVYRD — lower, -1.41
- HMQLTPAQHAILAYAIEHTGGKIEWFPDNIKGGARTKVLEGLFNKALITRDSTDWFVAAEGYDALGR — higher, 0.428
- HMQLYSLEVLSKKKVDLIENNKNLINLYFNKENGEYSYRLIFKNRKELYQVKDTLDNSSDVVSIKLDL — lower, -0.181
- HMQMGLNEAYRVLHVSPDAPWREVQSAYKERMAKSHPDKVSHLGEELQEKAKELTVEINKAYNTIKRYKK — lower, -0.0378
- HMQMKDRILRIMEHEGISPSKFAEEIGIQRSAMSHIISGRNNPSLDVLTKIMQRFTYVDTDWLLFGKGSMV — lower, -0.334
- HMQMPDLTGKPRAEAVTTLAALGFTDVKFLDASAGDEPLDYVADQVVRTSPEAGAALASGQQITIYLAT — lower, -0.0191
- HMQMSDTSMIRDLVLQVLAENPQSIEDFKNGKDRAVGFLVGMVMKKSQGKANPQITNQMIVEELKK — lower, -0.277
- HMQMSERENTILLTKRYIERGEYERAMNLLDSLLIKNALDEEALAMIDEIIALKAGASLQDFPRY — lower, -1.48
- HMQMTTPQMVPLFTDLSVDDSASIIKDLERQAVPYQIKSDGAIIMVPKDKVTRLRMKLAESGLPK — within 0.2 log units, 0.402
